Data reported in patent publication US20040253632A1.
Where two headings read alike, the source gives them in different places.

Tests used:
Assay in all cases: cell-based or functional assay
[1] = target: DO11.10 TCR (endogenous T cell receptor of the DO11.10 T cell hybridoma)
[2] = target: DO11.10 scTCR/murine CD3ζ fusion molecule (membrane-bound, on transfected cells) (mouse) (UniProt P24161)
[3] = target: DO11.10 TCR (endogenous T cell receptor of the DO11.10 T cell hybridoma); remark: listed apart in the source
[4] = target: DO11.10 scTCR/murine CD3ζ fusion molecule (membrane-bound, on transfected cells) (mouse) (UniProt P24161); remark: listed apart in the source
[5] = target: DO11.10 TCR (endogenous T cell receptor of the DO11.10 T cell hybridoma); remark: listed apart in the source

Chain of UniProt P24161 (P24161 whole entry, the tested form may be a part): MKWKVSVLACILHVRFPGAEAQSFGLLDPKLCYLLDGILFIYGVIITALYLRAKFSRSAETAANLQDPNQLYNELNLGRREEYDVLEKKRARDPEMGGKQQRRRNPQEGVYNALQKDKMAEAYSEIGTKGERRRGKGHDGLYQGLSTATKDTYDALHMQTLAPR

For “scIA^d/GD-IgM fusion (scIA^d/GD fused to CH2-CH3-CH4 of human IgM heavy chain), multi-valent (from UniProt P01871 106-453) (peptide-MHC)”, the IL-2 ELISA value; DO11.10 T cells; 1 ng complex/well [1] was 0.153 A405, the IL-2 ELISA value; DO11.10 T cells; 3 ng complex/well [1] was 0.14 A405 and the IL-2 ELISA value; DO11.10 T cells; 7 ng complex/well [1] was 0.148 A405. The IL-2 ELISA value; DO11.10 T cells; 15 ng complex/well [1] was 0.14 A405, the IL-2 ELISA value; DO11.10 T cells; 31 ng complex/well [1] was 0.165 A405 and the IL-2 ELISA value; DO11.10 T cells; 62 ng complex/well [1] was 0.157 A405. It also gave an IL-2 ELISA value; DO11.10 T cells; 125 ng complex/well [1] of 0.18 A405, an IL-2 ELISA value; DO11.10 T cells; 250 ng complex/well [1] of 0.193 A405 and an IL-2 ELISA value; BWDZ:CD4+ transfectants; 40 ng complex/well [2] of 0.282 A405. It also gave an IL-2 ELISA value; BWDZ:CD4+ transfectants; 200 ng complex/well [2] of 0.309 A405, an IL-2 ELISA value; BWDZ:CD4+ transfectants; 1000 ng complex/well [2] of 0.375 A405 and an IL-2 ELISA value; DO11.10 scTCR 2B4 transfectants; 1 ng complex/well [2] of 0.196 A405. For the same molecule, the IL-2 ELISA value; DO11.10 scTCR 2B4 transfectants; 3 ng complex/well [2] was 0.19 A405, the IL-2 ELISA value; DO11.10 scTCR 2B4 transfectants; 7 ng complex/well [2] was 0.213 A405 and the IL-2 ELISA value; DO11.10 scTCR 2B4 transfectants; 15 ng complex/well [2] was 0.199 A405. For the same molecule, the IL-2 ELISA value; DO11.10 scTCR 2B4 transfectants; 31 ng complex/well [2] was 0.226 A405, the IL-2 ELISA value; DO11.10 scTCR 2B4 transfectants; 62 ng complex/well [2] was 0.224 A405 and the IL-2 ELISA value; DO11.10 scTCR 2B4 transfectants; 125 ng complex/well [2] was 0.233 A405. For the same molecule, the IL-2 ELISA value; DO11.10 scTCR 2B4 transfectants; 250 ng complex/well [2] was 0.224 A405, the IL-2 ELISA value; DO11.10 T cells; 0.3 ng complex/well [3] was 0.189 A405 and the IL-2 ELISA value; DO11.10 T cells; 1 ng complex/well [3] was 0.184 A405. For the same molecule, the IL-2 ELISA value; DO11.10 T cells; 4 ng complex/well [3] was 0.179 A405, the IL-2 ELISA value; DO11.10 T cells; 11 ng complex/well [3] was 0.188 A405 and the IL-2 ELISA value; DO11.10 T cells; 33 ng complex/well [3] was 0.206 A405. It also gave an IL-2 ELISA value; DO11.10 T cells; 100 ng complex/well [3] of 0.221 A405 and an IL-2 ELISA value; DO11.10 T cells; 300 ng complex/well [3] of 0.248 A405.

With “scIA^d/OVA-IgM fusion (scIA^d/OVA fused to CH2-CH3-CH4 of human IgM heavy chain), multi-valent (from UniProt P01871 106-453) (peptide-MHC)” the IL-2 ELISA value; DO11.10 T cells; 1 ng complex/well [1] was 0.268 A405, the IL-2 ELISA value; DO11.10 T cells; 3 ng complex/well [1] was 0.529 A405 and the IL-2 ELISA value; DO11.10 T cells; 7 ng complex/well [1] was 0.838 A405. The IL-2 ELISA value; DO11.10 T cells; 15 ng complex/well [1] was 1.18 A405, the IL-2 ELISA value; DO11.10 T cells; 31 ng complex/well [1] was 1.42 A405 and the IL-2 ELISA value; DO11.10 T cells; 62 ng complex/well [1] was 1.33 A405. It also gave an IL-2 ELISA value; DO11.10 T cells; 125 ng complex/well [1] of 1.61 A405, an IL-2 ELISA value; DO11.10 T cells; 250 ng complex/well [1] of 1.48 A405 and an IL-2 ELISA value; BWDZ:CD4+ transfectants; 40 ng complex/well [2] of 0.305 A405. The IL-2 ELISA value; BWDZ:CD4+ transfectants; 200 ng complex/well [2] was 0.34 A405, the IL-2 ELISA value; BWDZ:CD4+ transfectants; 1000 ng complex/well [2] was 1.28 A405 and the IL-2 ELISA value; DO11.10 scTCR 2B4 transfectants; 1 ng complex/well [2] was 0.214 A405. It also gave an IL-2 ELISA value; DO11.10 scTCR 2B4 transfectants; 3 ng complex/well [2] of 0.234 A405, an IL-2 ELISA value; DO11.10 scTCR 2B4 transfectants; 7 ng complex/well [2] of 0.264 A405 and an IL-2 ELISA value; DO11.10 scTCR 2B4 transfectants; 15 ng complex/well [2] of 0.273 A405. It also gave an IL-2 ELISA value; DO11.10 scTCR 2B4 transfectants; 31 ng complex/well [2] of 1.32 A405, an IL-2 ELISA value; DO11.10 scTCR 2B4 transfectants; 62 ng complex/well [2] of 1.82 A405 and an IL-2 ELISA value; DO11.10 scTCR 2B4 transfectants; 125 ng complex/well [2] of 2.33 A405. For the same molecule, the IL-2 ELISA value; DO11.10 scTCR 2B4 transfectants; 250 ng complex/well [2] was 2.27 A405, the IL-2 ELISA value; DO11.10 T cells; 0.3 ng complex/well [3] was 0.192 A405 and the IL-2 ELISA value; DO11.10 T cells; 1 ng complex/well [3] was 0.195 A405. For the same molecule, the IL-2 ELISA value; DO11.10 T cells; 4 ng complex/well [3] was 0.23 A405, the IL-2 ELISA value; DO11.10 T cells; 11 ng complex/well [3] was 0.601 A405 and the IL-2 ELISA value; DO11.10 T cells; 33 ng complex/well [3] was 1.64 A405. For the same molecule, the IL-2 ELISA value; DO11.10 T cells; 100 ng complex/well [3] was 1.7 A405 and the IL-2 ELISA value; DO11.10 T cells; 300 ng complex/well [3] was 0.853 A405.

For “single-chain IA^d linked to HSV-1 glycoprotein D peptide GD 246-261 (scIA^d/GD), monovalent (peptide-MHC)”, the IL-2 ELISA value; DO11.10 T cells; 7 ng complex/well [1] was 0.163 A405, the IL-2 ELISA value; DO11.10 T cells; 15 ng complex/well [1] was 0.152 A405 and the IL-2 ELISA value; DO11.10 T cells; 31 ng complex/well [1] was 0.213 A405. For the same molecule, the IL-2 ELISA value; DO11.10 T cells; 62 ng complex/well [1] was 0.164 A405, the IL-2 ELISA value; DO11.10 T cells; 125 ng complex/well [1] was 0.179 A405 and the IL-2 ELISA value; DO11.10 T cells; 250 ng complex/well [1] was 0.18 A405. The IL-2 ELISA value; DO11.10 scTCR 2B4 transfectants; 7 ng complex/well [2] was 0.163 A405, the IL-2 ELISA value; DO11.10 scTCR 2B4 transfectants; 15 ng complex/well [2] was 0.152 A405 and the IL-2 ELISA value; DO11.10 scTCR 2B4 transfectants; 31 ng complex/well [2] was 0.213 A405. It also gave an IL-2 ELISA value; DO11.10 scTCR 2B4 transfectants; 62 ng complex/well [2] of 0.164 A405, an IL-2 ELISA value; DO11.10 scTCR 2B4 transfectants; 125 ng complex/well [2] of 0.179 A405 and an IL-2 ELISA value; DO11.10 scTCR 2B4 transfectants; 250 ng complex/well [2] of 0.227 A405. For the same molecule, the IL-2 ELISA value; DO11.10 T cells; 100 ng complex/well [3] was 0.152 A405.

For “scIA^d/GD-IgG multimer (scIA^d/GD-Cκ fusion with scIA^d/GD-IgG2b heavy chain fusion) (peptide-MHC)”, the IL-2 ELISA value; DO11.10 T cells; 12.5 ng complex/well [3] was 0.159 A405, the IL-2 ELISA value; DO11.10 T cells; 25 ng complex/well [3] was 0.166 A405 and the IL-2 ELISA value; DO11.10 T cells; 50 ng complex/well [3] was 0.155 A405. The IL-2 ELISA value; DO11.10 T cells; 100 ng complex/well [3] was 0.166 A405.

Work on “scIA^d/OVA-IgG multimer (scIA^d/OVA-Cκ fusion with scIA^d/OVA-IgG2b heavy chain fusion) (peptide-MHC)” yielded an IL-2 ELISA value; DO11.10 T cells; 12.5 ng complex/well [3] of 0.184 A405, an IL-2 ELISA value; DO11.10 T cells; 25 ng complex/well [3] of 0.758 A405 and an IL-2 ELISA value; DO11.10 T cells; 50 ng complex/well [3] of 2.11 A405. It also gave an IL-2 ELISA value; DO11.10 T cells; 100 ng complex/well [3] of 2.9 A405.

B1: IA^d/OVA complex on OVA peptide-pulsed A20 antigen presenting cells (peptide-MHC, mouse)
MHC II alpha: EDDIEADHVGFYGTTVYQSPGDIGQYTHEFDGDELFYVDLDKKKTVWRLPEFGQLILFEPQGGLQNIAAEKHNLGILTKRSNFTPATNEAPQATVFPKSPVLLGQPNTLICFVDNIFPPVINITWLRNSKSVTDGVYETSFLVNRDHSFHKLSYLTFIPSDDDIYDCKVEHWGLEEPVLKHWEPEIPAPMSELTETVVCALGLSVGLVGIVVGTIFIIQGLRSGGTSRHPGPL
MHC II beta: GNSERHFVVQFKGECYYTNGTQRIRLVTRYIYNREEYVRYDSDVGEYRAVTELGRPDAEYWNSQPEILERTRAEVDTACRHNYEGPETSTSLRRLEQPNVAISLSRTEALNHHNTLVCSVTDFYPAKIKVRWFRNGQEETVGVSSTQLIRNGDWTFQVLVMLEMTPHQGEVYTCHVEHPSLKSPITVEWRAQSESARSKMLSGIGGCVLGVIFLGLGLFIRHRSQKGPRGPPPAGLLQ
peptide: ISQAVHAAHAEINEAGR
B1 showed an IL-2 production of BW/DZ cells with full-length CD4 (BWDZ:CD4+) relative to DO11.10 cells; OVA peptide-mixed A20 APCs [4] of 75 to 80%, an IL-2 production of BW/DZ cells with truncated CD4 lacking the cytoplasmic domain (BWDZ:deltaCM) relative to DO11.10 cells; OVA peptide-mixed A20 APCs [4] of 10% and an IL-2 ELISA value; DO11.10 T cells with OVA peptide-loaded A20 cells; 0 µM compound 12G9 [5] of 1.91 A405. For the same molecule, the IL-2 ELISA value; DO11.10 T cells with OVA peptide-loaded A20 cells; 0 µM compound 211-C3 [5] was 2.02 A405, the IL-2 ELISA value; DO11.10 T cells with OVA peptide-loaded A20 cells; 0 µM compound 211-C9 [5] was 2.02 A405 and the IL-2 ELISA value; DO11.10 T cells with OVA peptide-loaded A20 cells; 0 µM compound 211B9 [5] was 1.92 A405.
